Test results published in PMC8431773, “Novel Cold-Adapted Recombinant Laccase KbLcc1 from Kabatiella bupleuri G3 IBMiP as a Green Catalyst in Biotransformation” (International Journal of Molecular Sciences, 2021).

Legend:
Assay in all cases: purified protein
[1] = substrate: COc1cc(/C=C/C(=O)O)cc(OC)c1O; type: biochemical, Aureobasidium bupleuri; details: pH 6.5 (abstract prints optimum pH 6.0), 30 °C, 3.0-150 µM substrate
[2] = substrate: CCn1c(=NN=c2sc3cc(S(=O)(=O)O)ccc3n2CC)sc2cc(S(=O)(=O)O)ccc21; type: biochemical, Aureobasidium bupleuri; details: pH 3.5, 30 °C, 0.2-4.0 mM substrate
[3] = substrate: COc1cc(C=NN=Cc2cc(OC)c(O)c(OC)c2)cc(OC)c1O; type: biochemical, Aureobasidium bupleuri; details: pH 7.0, 30 °C, 5.5-40.0 µM substrate
[4] = substrate: COc1ccccc1O; details: pH 5.5, 30 °C, 2.5-20.0 mM substrate

B1: KbLcc1 (Aureobasidium bupleuri) (protein)
chain: MHLQKLSGLCLLAFASVSWADAVPGDRYLWGADRMGKMVRRATTTSKASSTTAKASTSSVKTSSVSSASSKSSSNIVASVSSSPPASSASSASSTSSLVADAACTHGPNSRACWGNGYSIKTDFDLKHPTTGNTVTYNLEITNTTCNPDGNGDMPCYLINNQFPGPTIVADWGDKVIINVKNSLQNNGTSLHWHGVRQLSSVGSDGVGGITECPIAPGQSRTYSFLATQFGTSWYHSHYSSQYGMGVVGQVVINGPSSSNYDIDLGTFPITDLYYGLANNVNEMTLHNLQNNLPPPDGSNILVNGKGKSAKGGSYSQMSLTKGKKHRLRLINTSVDNAVRVKLDGHSFTVMSADFIPIKPLTNQGWILLAVGQRYDVVFTANQTPGNYFFRAEVATDCFSGNTGKGRALFTYSEVTAAEPTDSNEVAPTNGCTELNTVPYWTQAVDQSQYAAQVKTLKTGVAPGLTTNGQNFALWNLDTRAMMVRWDRPTIQYVFEGNTSYPDPYAVIEIPTEGTWTYWLIQMGPQNPPLPHPIHLHGHDFFVLGSGAGTFDATTAVLNFANPPRRDTSILPGLGWLLISFPANNPGIWLMHCHIAWHISEGLGVQFIEAKNSIAMPDKTTFNAECDSWRTYSKNMAWPQIDSGL
notes: full ORF of 649 residues (1938 bp, intron removed) cloned from its own ATG behind alpha-factor secretion signal (pPINKalpha-HF); tag not given; secreted from Pichia pastoris (PichiaPink strain 1)
Q: Which results are given for B1?
A: Km [1]: 15 µM; Vmax [1]: 1.39 µmol/min/mg; kcat [1]: 1.61 s⁻¹; kcat/Km [1]: 109000 M⁻¹ s⁻¹; Km [2]: 580 µM; Vmax [2]: 34.2 µmol/min/mg; kcat [2]: 39.6 s⁻¹; kcat/Km [2]: 68400 M⁻¹ s⁻¹; Km [3]: 21 µM; Vmax [3]: 33 µmol/min/mg; kcat [3]: 38.3 s⁻¹; kcat/Km [3]: 1.81e+06 M⁻¹ s⁻¹; Km [4]: 13280 µM; Vmax [4]: 4.7 µmol/min/mg; kcat [4]: 5.45 s⁻¹; kcat/Km [4]: 410 M⁻¹ s⁻¹
